Data from PMC3429473, “The Weak Complex between RhoGAP Protein ARHGAP22 and Signal Regulatory Protein 14-3-3 Has 1∶2 Stoichiometry and a Single Peptide Binding Mode” (PLoS ONE, 2012).
Read-outs that look alike come from different tables or passages of the source.

Columns and labels:
[1] = target: AG22 (1–422) S16D/S411D phosphomimic double mutant (human); test: SAXS titration; AG22 (1–422) S16D/S411D at 26.5 µM (1.25 mg/mL) mixed with 14-3-3 dimer at molar ratios 0.5, 1.0, 1.5 and 2.0; about 1 h on ice; data fitted as linear combinations of the profiles of the two proteins and of the cross-linked complex; Kd counted on the 14-3-3 dimer
[2] = target: AG22 (1-422) S16D/S411D (human); test: small-angle X-ray scattering (SAXS) titration; AG22 (1-422) S16D/S411D at 26.5 µM (1.25 mg/mL) pre-mixed with 14-3-3 at molar 14-3-3_(2):AG22 ratios of 0.5:1.0, 1.0:1.0, 1.5:1.0 and 2.0:1.0, about 1 hour on ice, measured at room temperature (295 K); scattering fitted as a linear combination of the profiles of 14-3-3_(2), AG22 and the cross-linked complex; Kd = (W_AG22 x W_14-3-3)/W_Complex for each titration point
[3] = target: AG22 (1-422) S16D/S411D (human); test: as above; remark: listed apart in the source
[4] = target: AG22 (1-422) S16D/S411D (human); test: as above; remark: listed apart in the source
[5] = target: AG22 (1–422) S16D/S411D phosphomimic double mutant (human); test: cross-linking + SEC; 1:2 mixture cross-linked with BS3 for 30 min in 50 mM Hepes pH 8.6, purified by gel filtration, then analytical Superdex S200 10/300GL in 25 mM HEPES pH 7.5, 150 mM NaCl, 2 mM β-ME
AG22 (1–145) S16D = target: T1, AG22 (1–145) S16D (human); test: cross-linking; AG22 proteins (10 µM) and 14-3-3 (30 µM), alone or mixed, in 50 mM HEPES pH 8.6 with 3 mM BS3 at room temperature for 5 to 30 min; SDS-PAGE, Coomassie Blue; conditions: both partners purified
T1 chain: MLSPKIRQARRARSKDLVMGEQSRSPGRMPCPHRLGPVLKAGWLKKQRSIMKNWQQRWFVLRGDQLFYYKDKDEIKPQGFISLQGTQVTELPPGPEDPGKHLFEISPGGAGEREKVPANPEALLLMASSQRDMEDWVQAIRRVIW

[6] = target: the molecule itself; test: as above
[7] = target: wild type AG22 (1–422) (human); test: as above
[8] = target: AG22 (1–422) S16D/S411D phosphomimic double mutant (human); test: as above

- Kd [1]: 28 µM
- Kd [2]: 20.9 µM
- Kd [3]: 27.4 µM
- Kd ([3]; record 2): 30.6 µM
- Kd [4]: 34.2 µM
- stoichiometry N (14-3-3 chains per AG22 molecule) [5]: 2
- stoichiometry N (AG22 (1–145) S16D): 2 14-3-3 chains per AG22 molecule
- stoichiometry N (14-3-3 chains per AG22 molecule) [7]: 2
- stoichiometry N (14-3-3 chains per AG22 molecule) [8]: 2
B1: human 14-3-3 β (natural protein)
chain: MTMDKSELVQKAKLAEQAERYDDMAAAMKAVTEQGHELSNEERNLLSVAYKNVVGARRSSWRVISSIEQKTERNEKKQQMGKEYREKIEAELQDICNDVLELLDKYLIPNATQPESKVFYLKMKGDYFRYLSEVASGDNKQTTVSNSQQAYQEAFEISKKEMQPTHPIRLGLALNFSVFYYEILNSPEKACSLAKTAFDEAIAELDTLNEESYKDSTLIMQLLRDNLTLWTSENQGDEG
notes: human 14-3-3 β isoform, codon-optimized synthetic gene (GeneArt) in pET20b; calculated monomer mass 29.3 kDa; the printed monomer mass of 29.3 kDa would fit the whole protein with the tag; Dimer by cross-linking and SAXS; also called 14-3-3_(2); 14-3-3 β isoform; not shown: His6, C-terminal, kept
- stoichiometry N [6]: 2
